Data published in paper PMC6706699 (Developmental Cell, 2019).
Values belong to the molecule of their own block, whether it stands above or below them. Square brackets hold non-standard residues; d marks the D form. Ends that are not written are not given here. pT = C[C@@H](OP(=O)(O)O)[C@H](N)C(=O)O

Experiments:
[1] = target: TGN38 cytoplasmic domain peptide, lipid-linked, in PtdIns4,5P2 liposomes; test: SPR; BIAcore T200, liposomes (PC/PE with 4% PtdIns4,5P2 and 2% lipid-linked peptide) on an L1 sensor; core or Pcore injected at 50 nM to 50 μM; 10 mM Tris pH 8.7, 250 mM NaCl, 1 mM DTT; apparent constants from fast and slow dissociation amplitudes
[2] = target: NECAP1 PHear domain, 1-133 (UniProt Q8NC96); test: ITC; details: reference: unphosphorylated peptide …; sites T156
[3] = target: μ2T156-phosphorylated AP2, endogenous in RPE cells (human (endogenous in RPE)) (UniProt O95782); test: co-IP; native co-immunoprecipitation with anti-AP2α antibody AP6 on protein G-Sepharose from RPE cell lysates (0.1% NP40), overnight at 4°C; western blot
[4] = target: Recombinant T156-phosphorylated AP2 core (UniProt P18484); test: ITC; Nano ITC, 10°C, 100 mM TRIS pH 8, 250 mM NaCl, 0.25 mM TCEP; 0.05-0.1 mM Pcore in the cell, 2-3 mM PHear titrated in
[5] = target: T1, NECAP1 PHear (1-133) R102A (UniProt Q8NC96 1-133, R102A); test: ITC
T1 sequence: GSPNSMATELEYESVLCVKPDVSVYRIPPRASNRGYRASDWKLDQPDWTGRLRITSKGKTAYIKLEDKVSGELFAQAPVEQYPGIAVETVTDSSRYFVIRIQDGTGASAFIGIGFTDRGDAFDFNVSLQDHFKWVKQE

[6] = target: T2, NECAP1 PHear (1-133) S88A (UniProt Q8NC96 1-133, S88A); test: ITC
T2 sequence: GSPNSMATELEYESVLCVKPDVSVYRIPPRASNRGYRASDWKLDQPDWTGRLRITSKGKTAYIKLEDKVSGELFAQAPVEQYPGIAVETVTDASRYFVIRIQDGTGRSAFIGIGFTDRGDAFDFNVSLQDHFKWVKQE

[7] = target: T3, NECAP1 PHear (1-133) R32D (UniProt Q8NC96 1-133, R32D); test: ITC
T3 sequence: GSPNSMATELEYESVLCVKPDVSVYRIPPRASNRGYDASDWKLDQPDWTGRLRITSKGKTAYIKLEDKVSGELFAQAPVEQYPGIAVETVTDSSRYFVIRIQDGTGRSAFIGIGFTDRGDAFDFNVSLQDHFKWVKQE

[8] = target: T4, NECAP1 PHear domain (NECAP 1-133), wild type (UniProt Q8NC96 1-133); test: ITC; + FxDxF peptide
T4 chain: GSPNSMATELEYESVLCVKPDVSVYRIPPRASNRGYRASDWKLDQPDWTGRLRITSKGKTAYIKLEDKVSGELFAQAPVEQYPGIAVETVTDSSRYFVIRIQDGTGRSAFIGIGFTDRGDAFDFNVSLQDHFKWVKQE

[9] = target: NECAP1 PHear domain (NECAP 1-133), wild type (UniProt Q8NC96); test: ITC; Nano ITC, 12°C, 75 mM HEPES pH 7.4, 0.25 mM TCEP; PHear domains in the cell, peptides at 1-5 mM titrated in
[10] = target: T5, NECAP1 PHear (1-133) S88A (UniProt Q8NC96 1-133, S88A); test: as above; details: both partners purified
T5 construct: NECAP1 PHear domain, residues 1-133; source: E. coli BL21DE3 pLysS, purified (GST sepharose, thrombin cleavage, gel filtration); not shown: GST, N-terminal, cleaved
T5 sequence: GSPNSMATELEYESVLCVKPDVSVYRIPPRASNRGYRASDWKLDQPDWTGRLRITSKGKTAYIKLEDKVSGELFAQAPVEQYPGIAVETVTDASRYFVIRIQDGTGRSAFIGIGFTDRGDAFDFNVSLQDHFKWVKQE

[11] = target: T6, NECAP1 PHear (1-133) R32D (UniProt Q8NC96 1-133, R32D); test: as above; details: both partners purified
T6 construct: NECAP1 PHear domain, residues 1-133; Not in the plasmid list; source: E. coli BL21DE3 pLysS, purified (GST sepharose, thrombin cleavage, gel filtration); not shown: GST, N-terminal, cleaved
T6 sequence: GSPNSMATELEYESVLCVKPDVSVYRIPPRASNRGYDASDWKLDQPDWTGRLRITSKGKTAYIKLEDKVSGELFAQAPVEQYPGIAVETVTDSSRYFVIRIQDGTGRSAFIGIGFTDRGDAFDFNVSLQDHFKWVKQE

[12] = target: T7, NECAP1 PHear (1-133) R102A (UniProt Q8NC96 1-133, R102A); test: as above; details: both partners purified
T7 construct: NECAP1 PHear domain, residues 1-133; source: E. coli BL21DE3 pLysS, purified (GST sepharose, thrombin cleavage, gel filtration); not shown: GST, N-terminal, cleaved
T7 sequence: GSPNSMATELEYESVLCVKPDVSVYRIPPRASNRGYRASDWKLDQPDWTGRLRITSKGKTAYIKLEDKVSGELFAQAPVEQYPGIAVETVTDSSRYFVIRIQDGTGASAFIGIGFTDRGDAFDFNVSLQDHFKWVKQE

Chain of μ2T156-phosphorylated AP2, endogenous in RPE cells (human (endogenous in RPE)) (O95782 whole entry, chain 1 of 4): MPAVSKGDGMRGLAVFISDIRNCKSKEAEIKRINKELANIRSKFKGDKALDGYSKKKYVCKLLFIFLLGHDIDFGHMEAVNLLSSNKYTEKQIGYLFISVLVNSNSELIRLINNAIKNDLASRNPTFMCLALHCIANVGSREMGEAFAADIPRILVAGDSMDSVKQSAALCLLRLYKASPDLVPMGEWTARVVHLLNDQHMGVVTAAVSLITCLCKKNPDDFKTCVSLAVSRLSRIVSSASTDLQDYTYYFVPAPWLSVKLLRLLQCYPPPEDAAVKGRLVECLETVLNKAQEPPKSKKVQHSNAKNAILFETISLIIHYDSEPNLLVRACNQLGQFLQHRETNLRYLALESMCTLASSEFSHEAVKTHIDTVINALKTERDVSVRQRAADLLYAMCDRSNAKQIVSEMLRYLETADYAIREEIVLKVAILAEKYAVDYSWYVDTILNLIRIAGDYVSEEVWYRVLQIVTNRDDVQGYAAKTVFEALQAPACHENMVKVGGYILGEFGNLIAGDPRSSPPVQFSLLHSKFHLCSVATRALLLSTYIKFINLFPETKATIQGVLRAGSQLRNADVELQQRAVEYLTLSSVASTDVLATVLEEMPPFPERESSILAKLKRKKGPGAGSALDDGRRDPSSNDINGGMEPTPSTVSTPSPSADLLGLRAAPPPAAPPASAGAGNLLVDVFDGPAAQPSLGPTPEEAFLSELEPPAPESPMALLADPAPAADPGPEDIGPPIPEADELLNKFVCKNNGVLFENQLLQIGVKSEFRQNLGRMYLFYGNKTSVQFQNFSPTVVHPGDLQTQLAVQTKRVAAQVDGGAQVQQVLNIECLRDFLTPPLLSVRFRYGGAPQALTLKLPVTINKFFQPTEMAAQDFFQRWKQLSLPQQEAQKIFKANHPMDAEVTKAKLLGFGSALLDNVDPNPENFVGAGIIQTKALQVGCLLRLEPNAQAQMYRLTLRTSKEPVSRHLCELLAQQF
Chain of μ2T156-phosphorylated AP2, endogenous in RPE cells (human (endogenous in RPE)) (P63010 whole entry, chain 2 of 4, further chain): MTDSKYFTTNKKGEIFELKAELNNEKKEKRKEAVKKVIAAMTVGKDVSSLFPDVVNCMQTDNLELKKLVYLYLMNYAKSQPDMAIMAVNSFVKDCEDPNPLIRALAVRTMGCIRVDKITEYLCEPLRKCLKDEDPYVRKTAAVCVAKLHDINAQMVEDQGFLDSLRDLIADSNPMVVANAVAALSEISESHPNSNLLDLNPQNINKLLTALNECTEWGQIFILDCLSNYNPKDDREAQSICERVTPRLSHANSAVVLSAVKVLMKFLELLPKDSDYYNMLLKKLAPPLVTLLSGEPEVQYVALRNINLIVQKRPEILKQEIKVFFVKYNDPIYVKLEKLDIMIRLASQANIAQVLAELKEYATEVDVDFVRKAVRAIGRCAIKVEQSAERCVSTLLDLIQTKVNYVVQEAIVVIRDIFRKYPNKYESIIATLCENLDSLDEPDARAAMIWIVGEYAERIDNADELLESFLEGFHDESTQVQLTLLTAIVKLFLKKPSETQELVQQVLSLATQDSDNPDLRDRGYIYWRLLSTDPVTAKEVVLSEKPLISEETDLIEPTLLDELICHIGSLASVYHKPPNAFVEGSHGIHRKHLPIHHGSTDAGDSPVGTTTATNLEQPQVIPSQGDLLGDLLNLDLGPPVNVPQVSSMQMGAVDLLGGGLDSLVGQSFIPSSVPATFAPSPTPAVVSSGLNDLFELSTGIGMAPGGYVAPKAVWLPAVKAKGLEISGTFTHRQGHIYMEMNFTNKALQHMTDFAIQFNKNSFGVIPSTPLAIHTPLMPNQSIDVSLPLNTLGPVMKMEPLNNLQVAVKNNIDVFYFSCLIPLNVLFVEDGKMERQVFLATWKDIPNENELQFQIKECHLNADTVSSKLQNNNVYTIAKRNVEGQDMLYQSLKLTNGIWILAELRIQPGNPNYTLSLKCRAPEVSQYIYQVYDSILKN
Chain of μ2T156-phosphorylated AP2, endogenous in RPE cells (human (endogenous in RPE)) (Q96CW1 whole entry, chain 3 of 4, further chain): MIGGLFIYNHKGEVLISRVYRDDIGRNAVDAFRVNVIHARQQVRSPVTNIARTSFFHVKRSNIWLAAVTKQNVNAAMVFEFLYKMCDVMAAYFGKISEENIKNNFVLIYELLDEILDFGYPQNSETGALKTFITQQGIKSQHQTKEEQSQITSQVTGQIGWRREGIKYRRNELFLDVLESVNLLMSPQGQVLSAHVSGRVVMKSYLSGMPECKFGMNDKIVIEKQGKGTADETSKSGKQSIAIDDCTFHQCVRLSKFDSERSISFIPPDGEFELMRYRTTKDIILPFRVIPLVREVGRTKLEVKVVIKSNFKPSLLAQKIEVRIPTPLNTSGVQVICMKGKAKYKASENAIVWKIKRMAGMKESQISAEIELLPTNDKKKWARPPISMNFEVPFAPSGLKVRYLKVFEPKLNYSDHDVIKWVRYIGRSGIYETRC
Chain of μ2T156-phosphorylated AP2, endogenous in RPE cells (human (endogenous in RPE)) (P53680 whole entry, chain 4 of 4, further chain): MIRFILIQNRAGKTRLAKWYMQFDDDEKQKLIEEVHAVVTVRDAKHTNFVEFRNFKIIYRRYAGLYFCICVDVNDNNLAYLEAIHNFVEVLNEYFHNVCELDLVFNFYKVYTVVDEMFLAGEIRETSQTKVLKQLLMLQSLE
Chain of Recombinant T156-phosphorylated AP2 core (UniProt P18484) (P18484 whole entry, chain 1 of 4): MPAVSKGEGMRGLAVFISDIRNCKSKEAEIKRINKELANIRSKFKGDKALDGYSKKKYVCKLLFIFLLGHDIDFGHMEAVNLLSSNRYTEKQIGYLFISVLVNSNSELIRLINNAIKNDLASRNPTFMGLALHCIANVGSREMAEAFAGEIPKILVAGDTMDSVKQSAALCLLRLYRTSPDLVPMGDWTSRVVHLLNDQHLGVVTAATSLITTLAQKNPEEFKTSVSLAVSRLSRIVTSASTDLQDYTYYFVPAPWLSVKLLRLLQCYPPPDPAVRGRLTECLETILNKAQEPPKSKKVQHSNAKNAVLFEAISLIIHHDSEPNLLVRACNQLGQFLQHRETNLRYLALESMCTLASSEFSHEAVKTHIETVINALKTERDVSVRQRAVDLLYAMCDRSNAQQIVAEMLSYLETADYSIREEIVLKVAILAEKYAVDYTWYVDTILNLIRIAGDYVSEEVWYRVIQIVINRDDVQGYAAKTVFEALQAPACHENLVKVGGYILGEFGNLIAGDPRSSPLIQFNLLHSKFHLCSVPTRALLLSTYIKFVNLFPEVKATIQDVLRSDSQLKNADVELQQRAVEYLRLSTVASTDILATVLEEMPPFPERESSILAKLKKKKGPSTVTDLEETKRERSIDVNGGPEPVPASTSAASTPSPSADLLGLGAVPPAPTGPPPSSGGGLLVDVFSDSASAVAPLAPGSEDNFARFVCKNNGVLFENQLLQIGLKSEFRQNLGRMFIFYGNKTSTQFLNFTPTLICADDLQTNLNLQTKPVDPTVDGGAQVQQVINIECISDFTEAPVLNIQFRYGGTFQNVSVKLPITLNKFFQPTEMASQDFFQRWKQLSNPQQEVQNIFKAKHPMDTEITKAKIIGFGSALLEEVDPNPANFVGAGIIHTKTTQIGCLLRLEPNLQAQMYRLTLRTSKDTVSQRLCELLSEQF
Chain of Recombinant T156-phosphorylated AP2 core (UniProt P18484) (P63010 1-592, chain 2 of 4, further chain): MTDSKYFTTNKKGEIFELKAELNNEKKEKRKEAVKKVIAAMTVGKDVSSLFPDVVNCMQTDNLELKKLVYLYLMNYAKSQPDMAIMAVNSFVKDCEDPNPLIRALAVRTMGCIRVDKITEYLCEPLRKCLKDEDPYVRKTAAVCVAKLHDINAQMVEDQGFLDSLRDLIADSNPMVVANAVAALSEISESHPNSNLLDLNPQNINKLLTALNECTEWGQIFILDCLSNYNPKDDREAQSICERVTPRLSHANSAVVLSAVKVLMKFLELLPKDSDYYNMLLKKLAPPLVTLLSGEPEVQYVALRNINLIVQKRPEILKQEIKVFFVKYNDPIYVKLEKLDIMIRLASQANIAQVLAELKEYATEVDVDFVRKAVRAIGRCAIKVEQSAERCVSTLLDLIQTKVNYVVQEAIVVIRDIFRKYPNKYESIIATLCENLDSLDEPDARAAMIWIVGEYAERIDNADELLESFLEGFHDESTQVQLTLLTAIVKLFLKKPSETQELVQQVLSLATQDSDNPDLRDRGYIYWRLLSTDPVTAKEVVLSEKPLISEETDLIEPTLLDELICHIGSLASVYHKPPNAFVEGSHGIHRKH
Chain of Recombinant T156-phosphorylated AP2 core (UniProt P18484) (P84092 whole entry, chain 3 of 4, further chain): as the sequence (Q96CW1 whole entry, chain 3 of 4, further chain) above
Chain of Recombinant T156-phosphorylated AP2 core (UniProt P18484) (P62743 whole entry, chain 4 of 4, further chain): as the sequence (P53680 whole entry, chain 4 of 4, further chain) above

- fold increase in liposome-binding affinity against the unphosphorylated core [1]: 3 fold
Molecule: Recombinant T156-phosphorylated AP2 core (from UniProt P18484 1-938; P63010 1-592; P84092 1-435; P62743 1-142) (complex)

- KD [2]: gained; reference no binding detected
Molecule: AP2 μ2 subunit (recombinant AP2 core / Pcore, GST-μ2 linkers, μ2 linker peptides) μ2 linker, 149-163 (from UniProt P84092) pT156 peptide

- percent reduction in binding against NECAP1-mRuby2 WT [3]: 60%
Molecule: mRuby2-Flag-GGGS-NECAP1 R90A (from UniProt Q8NC96-1 1-275) (natural protein)

- Kd [4]: 8 µM
Molecule: NECAP1 PHear domain (NECAP 1-133), wild type (from UniProt Q8NC96 1-133) (domain or fragment)

- Kd [5]: 57 µM
- Kd [6]: > 300 µM
- Kd [7]: 126 µM
- Kd [8]: 44.9 µM
- Kd [9]: 55 µM
- binding result [10]: binds
- binding result [11]: binds
- binding result [12]: binds
B1: T156-phosphorylated μ2 linker peptide (residues 149–163) (peptide)
peptide: SQITSQV[pT]GQIGWRR
notes: also called Peptide μ2linker Phos; phosphorylated μ2 peptide; source: synthetic peptide (Genscript)
